Data as given in patent US20210063414A1, “METHODS FOR PREVENTING AND/OR TREATING BONE LOSS CONDITIONS BY MODULATING IRISIN” (Dana-Farber Cancer Institute, Inc., priority 2018, published 2021).

Biological target: T1, MLO-Y4 cell surface proteins (Mus musculus, UniProt B1AVY7)
T1 construct: endogenous in cells; host or cells: MLO-Y4
T1 sequence (B1AVY7 1-1312): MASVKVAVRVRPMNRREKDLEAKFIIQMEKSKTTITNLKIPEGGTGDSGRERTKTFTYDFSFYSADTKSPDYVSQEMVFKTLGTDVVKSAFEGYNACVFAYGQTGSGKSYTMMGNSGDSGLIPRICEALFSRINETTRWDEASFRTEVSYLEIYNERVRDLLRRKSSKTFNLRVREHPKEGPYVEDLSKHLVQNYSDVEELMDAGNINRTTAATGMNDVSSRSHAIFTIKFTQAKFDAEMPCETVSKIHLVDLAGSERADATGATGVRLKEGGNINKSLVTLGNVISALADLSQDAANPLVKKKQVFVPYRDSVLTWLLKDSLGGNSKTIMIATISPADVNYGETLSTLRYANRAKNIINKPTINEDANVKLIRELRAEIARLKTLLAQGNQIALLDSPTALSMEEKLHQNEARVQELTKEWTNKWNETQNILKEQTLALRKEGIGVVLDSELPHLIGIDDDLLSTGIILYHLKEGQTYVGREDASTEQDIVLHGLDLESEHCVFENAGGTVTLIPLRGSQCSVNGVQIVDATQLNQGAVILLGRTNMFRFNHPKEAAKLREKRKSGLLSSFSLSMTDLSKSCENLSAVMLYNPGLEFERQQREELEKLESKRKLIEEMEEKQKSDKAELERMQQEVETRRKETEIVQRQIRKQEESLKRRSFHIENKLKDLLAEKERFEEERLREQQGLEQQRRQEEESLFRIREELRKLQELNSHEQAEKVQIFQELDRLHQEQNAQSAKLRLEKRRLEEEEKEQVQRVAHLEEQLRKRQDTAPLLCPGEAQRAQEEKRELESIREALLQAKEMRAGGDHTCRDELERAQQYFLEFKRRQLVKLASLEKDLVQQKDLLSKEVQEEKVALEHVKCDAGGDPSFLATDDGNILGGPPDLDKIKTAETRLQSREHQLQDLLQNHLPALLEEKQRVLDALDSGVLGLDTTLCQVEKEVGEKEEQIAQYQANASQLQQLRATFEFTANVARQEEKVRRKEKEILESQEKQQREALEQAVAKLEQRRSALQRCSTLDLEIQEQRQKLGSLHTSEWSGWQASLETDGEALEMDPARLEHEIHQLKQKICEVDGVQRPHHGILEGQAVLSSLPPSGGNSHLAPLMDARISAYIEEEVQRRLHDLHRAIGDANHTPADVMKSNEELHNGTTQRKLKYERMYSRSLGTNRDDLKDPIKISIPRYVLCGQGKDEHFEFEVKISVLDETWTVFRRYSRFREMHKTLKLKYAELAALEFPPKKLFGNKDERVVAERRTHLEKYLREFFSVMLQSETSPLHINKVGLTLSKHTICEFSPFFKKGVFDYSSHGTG
Test: Crosslinking/co-immunoprecipitation/mass spectrometry (TMT quantitative proteomics) to identify irisin receptors
Type: binding
Details: co-precipitated protein Kif16b (KI16B_MOUSE)
Method in brief: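 Mouse MLO-Y4 cells were switched to serum-free FreeStyle medium for 4 h, chilled, then exposed to 10 nM His-tagged irisin (or adipsin as control) for 20 min. Cells were crosslinked with 1.5 mM DTSSP (30 min, ice), and bound proteins were pulled down on Ni-NTA and eluted with 250 mM imidazole. Eluates were separated by SDS-PAGE, trypsin-digested in gel, TMT 6-plex labelled and quantified by MS3-based LC-MS/MS on an Orbitrap Fusion Lumos.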

B1: irisin: secreted cleaved form of FNDC5; recombinant human/mouse irisin with C-terminal his tag produced in HEK293 cells (protein)
chain: DSPSAPVNVTVRHLKANSAVVSWDVLEDEVVIGFAISQQKKDVRMLRFIQEVNTTTRSCALWDLEEDTEYIVHVQAISIQGQSPASEPVLFKTPREAEKMASKNKDEVTMKE
modifications: left off: small tags and cut ends
notes: secreted cleaved form of FNDC5; recombinant human/mouse irisin with C-terminal his tag produced in HEK293 cells
Q: Which TMT signal-to-noise ratio does the source give for B1 here?
A: Its TMT signal-to-noise ratio is 528.649.

Q: And the “irisin/adipsin TMT signal-to-noise ratio” value?
A: Its value is 0.473.
